The source of these data is patent publication US12006530B2, “Streptococcal proteases” (priority 2016, dated 2024).

Positions count from the first letter of the chain named. In names and notes the source's numbering stands. Entries after “also recorded” stand apart in the source; their conditions may differ.

B1: rIgdE^D348A (protein)
chain: DENSHLQSPKNTNKIEVLNWEAFSKKLKDYSSDQRQFHVLKLGFENRLGTLSTREELEEFGKNNNFLVINGKVTQNIHDFPHILVMNKGDVIAHNEEDYHNQMRELRFSGNGDLHNSMEPKRIHALFKIELDSNKRQLLNAAGLGTAENSLKNINGMTIYSHGLTVDNKYYEDYSKYTHNSVKNINVTKERFIANDDLIHKLIESSEAMKQSSERDKVKAFVQYVANHTTYDWEAANKAVQNYADINYYLGSDLFAVTERQKAMCVGFSTTAARAFNMLGLPAYVVVGKNAEGVPHATARVYYDKKWHTIAGTGFITGNKHQRSAKYSEKHFSTIGEDSYDVVEAGQEPKAERNYMIIDSNYESWAMKQKTADLLLFNKEKSLVGLDYIAYVEPTYITENKKNHLLDIYKALKRKVEETKATDKDDKDDKQEGYDRVLQFVNSDIDKLSALSKITEEEFKALENSMDLARVFLGQMNAKAGKEFSEGETYQSYLKNRQKNNTNSDDDRNRNELQENQANSDEVSQNSKDASAPSVNSAQQSEELEGTPSTQETISAAPSQQTPAAPKALQAKTELEDKTETSSLGNTEMVSPSSETAQNTVDSKEESDAKLPYVEPSSKESSEAQVNTVSSPQVSSASPTSSETISTDTVTASQEKAESRVSAPQVISASQTSPETNSAEVVTTSQEVAKAPVSAPQVSSEIQTLSETAPTEVATEAPELSALESNPAPQTSLETTPTEEVTETPEPSVVESNSASPTSPETNSAEAVTTSQEMAEPSVSVPQVSSEIPTSSETAPAEVATEVSEESSSASQPSPETTPTETVTTSQEVAEAPVSAPQVSSEIPTSPETASTEVVVAKQEVADSPVSAPQVISEIPTSSETAPAEVATEVTEPSVVASSSASPTSPEANSTEVVVAKQEVADPLVSAPQTSSASLTLEVPKNEHLDEKADATTPNGVEANTHEAVSVPTSDIRVQDAGSDTVPQPYSLSATLFEEAISTVEPVGVATSSQERSAVAGKVKVPTSLERSNNSVEEEKVVDSNATIENREPEKKEILTSENVLNSLVTIWVALSTSFFMRYFSRGK
B2: rIgdE^H333A (protein)
chain: B1 chain with H296A, A311D
B3: rIgdE^C302S (protein)
chain: B1 chain with C265S, A311D

In this experiment the test system is porcine IgG. Kind of experiment: IgG cleavage by IgdE, SDS-PAGE. Type of experiment: biochemical, pig. Particulars: 3.3 μM porcine IgG, 16 h at 37° C., soluble fractions of E. coli expressing the construct, reducing SDS-PAGE. On the procedure:
(A) Schematic illustration of IgdE and the different rIgdE constructs with potential active site residues substitutions and the C-terminal truncation variant. The secretion signal peptide (residues 1-37) is marked in light grey, the transglutaminase domain is boxed and the potential active site residues and substitutions are indicated. (B) 3.3 μM porcine IgG was incubated for 16 h at 37° C. with soluble fractions of E. coli cells expressing different rIgdE constructs. The reaction was analyzed SDS-PAGE under reducing conditions. […] The weak protein band of 37 kDa is a contaminant present in lysate preparation and not related to IgdE activity.
0.5 mg/ml of porcine IgG (Sigma) in PBS or of other species (human, goat, cow, horse and mouse; all Sigma) were incubated with either crude extracts of induced E. coli carrying S. suis IgdE constructs mentioned above or 10 nM purified rIgdE for 16 h at 37° C. prior subjection to SDS-PAGE under either reducing or non-reducing conditions.
Samples for SDS-PAGE were prepared with either reducing or non-reducing sample buffer and heated to 95° C. for 5 min. 12% SDS-PAGE was either stained with Coomassie blue (Sigma), Coomassie Fluor™ Orange Protein Gel Stain (Invitrogen) or blotted to Hybond-P PVDF membrane (GE Healthcare) for western blot analyses. Membranes were blocked with 5% dry milk powder in 0.1% PBS-Tween, followed by incubation with horse-radish peroxidase conjugated antibodies. Goat anti-pig IgG-HRP (Thermo Scientific) and goat anti-porcine IgM-HRP (Thermo Scientific) was diluted 1:25′000 and goat anti-porcine IgA-HRP (Thermo Scientific) was diluted 1:12′500. Membranes were thoroughly washed with 0.1% PBS-Tween prior to development with Amersham ECL Select Western blotting detection reagent (GE Healthcare) according to manufactures instruction and pictured by LAS4000 imaging system (Fujifilm).
In the case of B1, the “IgG cleavage (32 kDa band) by rIgdE constructs” value (“IgG cleavage (32 kDa band)” for short) is reported as “IgG cleavage (*) occurred; also recorded: somewhat reduced IgG cleaving activity”.

Regarding B2, the “IgG cleavage (32 kDa band)” value is “neither rIgdE^C302S nor rIgdE^H333A exhibited IgG cleaving activity”.

In the case of B3, the “IgG cleavage (32 kDa band)” value is reported as “neither rIgdE^C302S nor rIgdE^H333A exhibited IgG cleaving activity”.
